Consider one substance from article doi:10.1101/2023.09.14.557733.

In the experiment the target is FgSte2-yellow fluorescent protein (F. graminearum). The experiment can be described thus: FRET or BRET. For orientation: BRET reads energy transfer from a luciferase to a nearby fluorophore.

As for FgSte3-Nano luciferase (receptor), the BRET50 (galactose concentration for donor induction) was 2 % galactose, the mBRET worked out at 110 mBRET and the netBRET was greater than 0.1 netBRET.
